Square brackets hold non-standard residues; d marks the D form. Ends that are not written are not given here.
Target: T1, binding of eIF4E to eIF4G (Homo sapiens, UniProt P06730)
T1 construct: endogenous in cells; host or cells: OVCAR-3 cell lysate
Assay: Immunoprecipitation with eIF4E antibody and Western blot with eIF4G antibody, OVCAR-3 cell lysate incubated with peptide
Conditions: peptide 3 micromoles per liter, 250 micrograms OVCAR-3 cell lysate
Method: FIGS. 1A-1G. 4EBP peptides bind eIF4E and inhibit binding of eIF4E to eIF4G. (FIG. 1A) Sequences of peptides comprising residues 49 to 68 of 4EBP1 and 4EBP2. (FIG. 1B) Biotinylated peptides (3 micromoles per liter) were incubated with 250 micrograms of OVCAR-3 cell lysate. Peptides were pulled-down using streptavidin-agarose. Precipitates (P) and supernatants (S) were analyzed by Western blot using eIF4E antibody. In (FIG. 1C), immunoprecipitation was performed using eIF4E antibody, and Western blot performed using eIF4G antibody. (FIG. 1D) Sequences of wild-type and mutant 4EBP peptides fused to TAT (mutant residues are highlighted). (FIG. 1E) OVCAR-3 cells were treated with biotinylated peptides (3 micromoles per liter, final concentration) for 16 hours. Internalized peptides were detected by staining fixed cells with Texas Red-conjugated streptavidin. Nuclei were visualized by staining with 4′,6-Diamidino-2-Phenylindole (DAPI). (FIGS. 1F and 1G) OVCAR-3 cell lysates were incubated with peptides as described for FIG. 1B. In (FIG. 1F), immunoprecipitation was performed using streptavidin-agarose and Western blot performed using eIF4E antibody. In (FIG. 1G), immunoprecipitation was performed using eIF4E antibody, and Western blot performed using eIF4G antibody.
FIGS. 3A-3H. Uptake, binding and inhibitory effects of [DLys6]GnRH-4EBP fusion peptides. (FIG. 3A) Sequences of [DLys6]GnRH, and wild-type and mutant 4EBP1 peptides fused to the agonist. (FIG. 3B) Western blot of GnRH-RI levels in OVCAR-3, ES-2, MDA-MB-231, BJ, HUVEC and SKOV3 cells. (FIG. 3C) Detection of biotinylated peptides in OVCAR-3 and SKOV3 by Texas Red-conjugated streptavidin at 16 hours after peptide addition (3 micromoles per liter). In (FIGS. 3D and 3E), biotinylated peptides were incubated with OVCAR-3 cell lysate as described in FIG. 1. In (FIG. 3D), peptide was pulled down using streptavidin-agarose. Precipitates (P) and supernatants (S) were analyzed by Western blot using eIF4E antibody. In (FIG. 3E), immunoprecipitation was performed using eIF4E antibody, and Western blot performed using eIF4G antibody. (FIG. 3F) R-Luc and F-Luc activities were assayed in ES-2-DualLuc cells at 6 hours after addition of the indicated concentrations of peptides, and are expressed relative to the respective luciferase activities in cells incubated without peptide. Shown are results of triplicate assays performed independently two times, and the statistical significance of differences in relative R-Luc and F-Luc activities in cells treated with peptide at a concentration of 10 micromoles per liter (FIG. 3G) Cells of GnRH-RI-positive and -negative lines were treated with the indicated concentrations of peptides. […]

T1 sequence (P06730 2-217 limits assumed): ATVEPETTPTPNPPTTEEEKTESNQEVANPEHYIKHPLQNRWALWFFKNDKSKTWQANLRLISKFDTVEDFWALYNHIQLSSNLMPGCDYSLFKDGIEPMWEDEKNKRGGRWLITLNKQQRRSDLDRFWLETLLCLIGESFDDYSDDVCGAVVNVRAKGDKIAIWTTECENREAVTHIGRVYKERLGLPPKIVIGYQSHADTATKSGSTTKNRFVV

[DLys6]GnRH: GnRH agonist with a D-amino acid substitution at position 6; GnRH-RI-targeting moiety (QHWSY[dK]LRPG; not fully specified (residue 1, C-terminus); ends and bridges not checked)
inhibition of eIF4E binding to eIF4G: not inhibited
